From patent US12534748B2, “Engineered beta-subunit of tryptophan synthase for production of non-canonical amino acids” (California Institute of Technology, priority 2015, dated 2026)
Changes are numbered by the printed parent chain. Numbers in names are those of the source.

Columns and labels:
[1] = substrate: c1ccc2[nH]ccc2c1; assay: purified protein, by the assay type; conditions: pH 8.0
[2] = substrate: N[C@@H](CO)C(=O)O; assay: Tryptophan formation from L-serine and indole, kinetics of wild-type PfTrpB; format: biochemical, Pyrococcus furiosus; conditions: other: 75° C., pH 8.0
Experimental: (§1) Cloning, Expression, and Purification of PfTrpA and PfTrpB. The genes encoding PfTrpB (UNIPROT ID Q8U093) and PfTrpA (UNIPROT ID Q8U094) were obtained as gBlocks and cloned into pET22(b)+ for expression in E. coli BL21 E. cloni EXPRESS cells (Lucigen). Heterologous protein expression of PfTrpA and PfTrpB was performed in Terrific Broth with 100 μg/mL ampicillin (TBamp) and induced with 500 mM IPTG (final concentration 1 mM). PfTrpB was purified via a HisTrap HP column. PfTrpA was purified via a Q HP HiTrap column (flow-through), followed by ammonium sulfate precipitation, and hydrophobic interaction chromatography on a phenyl Sepharose HP HiTrap column (FIG. 3).
(§2) Kinetics and UV-Vis Spectroscopy. Data were collected between 550 and 250 nm on a UV1800 Shimadzu spectrophotometer (Shimadzu) using 0.25-20 μM of enzyme in 200 mM potassium phosphate (pH 8.0) in a quartz cuvette. Samples were incubated at 75° C. for >3 min to ensure a stable temperature was reached. PfTrpB activity (kcat) was measured by monitoring tryptophan formation at 290 nm using Δe290=1.89 mM^−1·cm^−1.
(§3) Selection of the Parent Enzyme, TrpB, from Pyrococcus furiosus. […]

[3] = substrate: c1ccc2[nH]ccc2c1; assay: as above; format: biochemical, Pyrococcus furiosus; conditions: other: 75° C., pH 8.0
Experimental: as §1, §2, §3

[4] = substrate: N[C@@H](CO)C(=O)O; assay: Tryptophan formation from L-serine and indole, kinetics of PfTrpB^2G9; format: biochemical, Pyrococcus furiosus; conditions: other: 75° C., pH 8.0
[5] = substrate: N[C@@H](CO)C(=O)O; assay: Tryptophan formation from L-serine and indole, kinetics of PfTrpS complex; format: biochemical, Pyrococcus furiosus; conditions: other: 75° C., pH 8.0
[6] = substrate: N[C@@H](CO)C(=O)O; assay: purified protein, by the assay type; conditions: other: 75° C., pH 8.0
[7] = substrate: N[C@@H](CO)C(=O)O; assay: Tryptophan formation from L-serine and indole, kinetics of PfTrpB^4D11; format: biochemical, Pyrococcus furiosus; conditions: other: 75° C., pH 8.0

B1: Thermotoga maritima TrpB variant TmTrpB^0B2 (P14L, P19G, I69V, L274S, T292S) (Thermotoga maritima MSB8; I69V/L274S/P14L/P19G/T292S) (protein)
chain: MKGYFGPYGGQYVLEILMGALEELEAAYEEIMKDESFWKEFNDLLRDYAGRPTPLYFARRLSEKYGARVYLKREDLLHTGAHKINNAIGQVLLAKKMGKTRIIAETGAGQHGVATATAAALFGMECVIYMGEEDTIRQKPNVERMKLLGAKVVPVKSGSRTLKDAINEALRDWITNLQTTYYVIGSVVGPHPYPIIVRNFQKVIGEETKKQILEKEGRLPDYIVACVGGGSNAAGIFYPFIDSGVKLIGVEAGGEGLETGKHAASLLKGKIGYSHGSKTFVLQDDWGQVQVSHSVSAGLDYSGVGPEHAYWRETGKVLYDAVTDEEALDAFIELSRLEGIIPALESSHALAYLKKINIKGKVVVVNLSGRGDKDLESVLNHPYVRERIRLEHHHHHH
[1]; other: 75° C.
  Km: 72 µM

B2: Pyrococcus furiosus tryptophan synthase beta-subunit PfTrpB, wild type, SEQ ID NO: 2 (Pyrococcus furiosus DSM 3638) (protein)
chain: MWFGEFGGQYVPETLIEPLKELEKAYKRFKDDEEFNRQLNYYLKTWAGRPTPLYYAKRLTEKIGGAKIYLKREDLVHGGAHKTNNAIGQALLAKFMGKTRLIAETGAGQHGVATAMAGALLGMKVDIYMGAEDVERQKMNVFRMKLLGANVIPVNSGSRTLKDAINEALRDWVATFEYTHYLIGSVVGPHPYPTIVRDFQSVIGREAKAQILEAEGQLPDVIVACVGGGSNAMGIFYPFVNDKKVKLVGVEAGGKGLESGKHSASLNAGQVGVFHGMLSYFLQDEEGQIKPTHSIAPGLDYPGVGPEHAYLKKIQRAEYVTVTDEEALKAFHELSRTEGIIPALESAHAVAYAMKLAKEMSRDEIIIVNLSGRGDKDLDIVLKVSGNVLEHHHHHH
[2]
  Km: 1200 ± 100 µM
[3]
  Km: 77 ± 12 µM

B3: Pyrococcus furiosus TrpB variant M144T N166D (Table 6 prints N166T), SEQ ID NO: 20 (Pyrococcus furiosus DSM 3638; M144T/N166D) (protein)
chain: B2 chain with M144T, N166D
[1]; other: 75° C.
  Km: 42 µM

B4: Pyrococcus furiosus TrpB variant PfTrpB^2G9 (T292S), SEQ ID NO: 10 (Pyrococcus furiosus DSM 3638; T292S) (protein)
chain: B2 chain with T292S
[4]
  Km: 840 µM

B5: Pyrococcus furiosus tryptophan synthase complex PfTrpS (PfTrpA + PfTrpB) (Pyrococcus furiosus DSM 3638) (protein)
chain: B2 chain
[5]
  Km: 600 µM

B6: Pyrococcus furiosus TrpB variant PfTrpB^0B2 (P12L, E17G, I68V, T292S, F274S, T321A), SEQ ID NO: 12 (Pyrococcus furiosus DSM 3638; … (protein)
chain: B2 chain with P12L, E17G, I68V, F274S, T292S, T321A
[6]
  Km: 700 µM
[1]; other: 75° C.
  Km: 8.7 µM

B7: Pyrococcus furiosus TrpB variant PfTrpB^4D11 (E17G, I68V, T292S, F274S, T321A), SEQ ID NO: 16 (Pyrococcus furiosus DSM 3638; E17G/F274S/I68V/T292S/T321A) (protein)
chain: B2 chain with E17G, I68V, F274S, T292S, T321A
[7]
  Km: 1200 µM

B8: Archaeoglobus fulgidus TrpB variant AfTrpB^0B2 (P25L, E30G, I80V, F285S, T303S, T332A), SEQ ID NO: 22 (Archaeoglobus fulgidus DSM 4304; … (protein)
chain: MRCWLENLSGGRKMKFGEFGGRFVLEVLIGPLEELEKAYDRFKDDEEFKARLEYYLKSYAGRPTPLYFAENLSRELGVKVYLKREDLLHGGAHKINNTIGQALLAKFMGKKRVIAETGAGQHGVATAMAAALLGLEAEIYMGAEDYERQKMNVFRMELLGAKVTAVESGSRTLKDAINEALRDWVESFEHTHYLIGSVVGPHPFPTIVRDFQAVIGKEARRQIIEAEGGMPDAIIACVGGGSNAMGIFHPFLNDDVRLIGVEAGGEGIESGRHSASLTAGSKGVSHGMLSYFLQDEEGMMLDSHSVSAGLDYPGVGPEHAYLKETGRCEYVAVNDEEALRAFKTLSKLEGIIPALESAHAIAYAMKMAEEMQRDDVLVVNLSGRGDKDMDIVRRRLALEHHHHHH
[1]; other: 60° C.
  Km: 4.8 µM
